Laboratory results reported in US20240400675A1 (published 2024).
Where a chain is given by its changes, count along the chain named.

B1: XENP34229 (C6-30_H1L1 x CD3 bsAb in the 1+1 Fab-scFv-Fc format) (bispecific antibody)
heavy: QVQLVQSGAEVKKPGASVKVSCKTSGYTFTEYTMHWVRQAPGQSLEWMGGIDPNNGNTHYNQKFQGRVTITVDKSASTAYMELSSLRSEDTAVYYCARIYYFGRLYFDFWGAGTLVTVSSASTKGPSVFPLAPSSKSTSGGTAALGCLVKDYFPEPVTVSWNSGALTSGVHTFPAVLQSSGLYSLSSVVTVPSSSLGTQTYICNVNHKPSDTKVDKKVEPKSCDKTHTCPPCPAPPVAGPSVFLFPPKPKDTLMISRTPEVTCVVVDVKHEDPEVKFNWYVDGVEVHNAKTKPREEEYNSTYRVVSVLTVLHQDWLNGKEYKCKVSNKALPAPIEKTISKAKGQPREPQVYTLPPSREEMTKNQVSLTCDVSGFYPSDIAVEWESDGQPENNYKTTPPVLDSDGSFFLYSKLTVDKSRWEQGDVFSCSVMHEALHNHYTQKSLSLSPGK
scFv-Fc: QAVVTQEPSLTVSPGGTVTLTCGSSTGAVTTSNYANWVQQKPGKSPRGLIGGTNKRAPGVPARFSGSLLGGKAALTISGAQPEDEADYYCALWYSNHWVFGGGTKLTVLGKPGSGKPGSGKPGSGKPGSEVQLVESGGGLVQPGGSLRLSCAASGFTFSTYAMNWVRQAPGKGLEWVGRIRSKYNNYATYYADSVKGRFTISRDDSKNTLYLQMNSLRAEDTAVYYCVRHGNFGDSYVSWFAYWGQGTLVTVSSEPKSSDKTHTCPPCPAPPVAGPSVFLFPPKPKDTLMISRTPEVTCVVVDVKHEDPEVKFNWYVDGVEVHNAKTKPREEQYNSTYRVVSVLTVLHQDWLNGKEYKCKVSNKALPAPIEKTISKAKGQPREPQVYTLPPSREQMTKNQVKLTCLVKGFYPSDIAVEWESNGQPENNYKTTPPVLDSDGSFFLYSKLTVDKSRWQQGNVFSCSVMHEALHNHYTQKSLSLSPGK
light: not shown
notes: copies: 1 + 1 + 1
B2: XENP34637 (C6-30_H2L1 x CD3 bsAb in the 1+1 Fab-scFv-Fc format) (bispecific antibody)
heavy: EVQLVQSGAEVKKPGESLRISCKTSGYTFTEYTMHWVRQMPGKSLEWMGGIDPNNGNTHYNQKFQGHVTISVDKSISTAYLQWSSLKASDTAMYYCARIYYFGRLYFDFWGAGTLVTVSSASTKGPSVFPLAPSSKSTSGGTAALGCLVKDYFPEPVTVSWNSGALTSGVHTFPAVLQSSGLYSLSSVVTVPSSSLGTQTYICNVNHKPSDTKVDKKVEPKSCDKTHTCPPCPAPPVAGPSVFLFPPKPKDTLMISRTPEVTCVVVDVKHEDPEVKFNWYVDGVEVHNAKTKPREEEYNSTYRVVSVLTVLHQDWLNGKEYKCKVSNKALPAPIEKTISKAKGQPREPQVYTLPPSREEMTKNQVSLTCDVSGFYPSDIAVEWESDGQPENNYKTTPPVLDSDGSFFLYSKLTVDKSRWEQGDVFSCSVMHEALHNHYTQKSLSLSPGK
scFv-Fc: not shown
light: not shown
notes: copies: 1 + 1 + 1

How the values were obtained:
human CLDN5 = biological target: T1, human CLDN5 (human, UniProt O00501 1-218); experiment: flow cytometry on transfected cells
T1 construct: whole, on cells
T1 sequence (looked up): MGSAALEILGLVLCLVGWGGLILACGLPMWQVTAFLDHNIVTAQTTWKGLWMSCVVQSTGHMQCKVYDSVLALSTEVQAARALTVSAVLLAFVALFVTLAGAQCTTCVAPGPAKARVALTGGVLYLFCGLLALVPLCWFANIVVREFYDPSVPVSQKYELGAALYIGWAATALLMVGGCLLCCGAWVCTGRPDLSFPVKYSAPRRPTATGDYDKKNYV

human CLDN8 = biological target: T2, human CLDN8 (human, UniProt P56748 1-225); experiment: flow cytometry on transfected cells
T2 construct: whole, on cells
T2 sequence (looked up): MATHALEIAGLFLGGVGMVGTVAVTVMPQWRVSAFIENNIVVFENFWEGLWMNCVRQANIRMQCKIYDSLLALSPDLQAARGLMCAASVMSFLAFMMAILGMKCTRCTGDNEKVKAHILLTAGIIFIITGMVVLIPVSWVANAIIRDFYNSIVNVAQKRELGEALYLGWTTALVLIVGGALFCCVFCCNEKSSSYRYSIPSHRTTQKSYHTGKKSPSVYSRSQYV

human CLDN17 = biological target: T3, human CLDN17 (human, UniProt P56750 1-224); experiment: flow cytometry on transfected cells
T3 construct: whole, on cells
T3 sequence (looked up): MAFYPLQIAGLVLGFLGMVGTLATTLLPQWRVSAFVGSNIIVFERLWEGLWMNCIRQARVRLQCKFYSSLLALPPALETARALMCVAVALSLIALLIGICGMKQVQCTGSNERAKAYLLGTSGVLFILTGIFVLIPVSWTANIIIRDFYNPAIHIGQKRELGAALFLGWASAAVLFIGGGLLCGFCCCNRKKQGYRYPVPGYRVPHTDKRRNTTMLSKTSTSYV

human CLDN6 = biological target: T4, human CLDN6 (human, UniProt P56747 1-220); experiment: flow cytometry on transfected HEK293E cells
T4 construct: also called Claudin 6
T4 sequence: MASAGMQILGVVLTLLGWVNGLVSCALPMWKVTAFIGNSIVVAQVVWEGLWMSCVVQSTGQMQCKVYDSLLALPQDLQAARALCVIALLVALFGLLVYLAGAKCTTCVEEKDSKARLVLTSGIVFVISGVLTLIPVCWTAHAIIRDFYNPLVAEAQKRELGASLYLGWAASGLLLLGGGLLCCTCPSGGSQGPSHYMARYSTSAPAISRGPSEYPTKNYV
Experimental: (§1) The following experiments used to screen CLDN6 binding domains were generally performed as follows. HEK293T or HEK293E cells were respectively stably or transiently transfected to express CLDN6, CLND9, or other targets of interest. 48 hours post transfection, cells were harvested and incubated with dilutions of the indicated test articles for 1 hour at 4° C. […] Binding was then assessed via flow cytometry.

CLDN6 I143V isotype = biological target: T5, CLDN6 I143V isotype (human, UniProt P56747 1-220); experiment: flow cytometry on transfected HEK293E cells
T5 chain: T4 sequence with I143V
Experimental: as §1

mouse CLDN6 = biological target: T6, mouse CLDN6 (mouse, UniProt Q9Z262 1-219); experiment: flow cytometry on transfected HEK293E cells
T6 construct: whole, on cells; also called murine CLDN6
T6 sequence (looked up): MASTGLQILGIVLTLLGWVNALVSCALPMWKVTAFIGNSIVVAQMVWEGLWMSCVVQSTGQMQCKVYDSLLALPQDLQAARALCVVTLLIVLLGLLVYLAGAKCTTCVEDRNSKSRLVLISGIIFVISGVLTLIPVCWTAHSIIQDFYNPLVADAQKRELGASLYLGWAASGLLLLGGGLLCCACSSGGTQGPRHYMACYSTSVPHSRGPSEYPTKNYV
Experimental: as §1

Binder	binding result (human CLDN5)	binding result (human CLDN8)	binding result (human CLDN17)	binding result (human CLDN6)	binding result (CLDN6 I143V isotype)	binding result (mouse CLDN6)
B1	no binding	no binding	no binding	binds	binds	binds
B2	no binding	no binding	no binding	binds	binds	binds
